Variants at the floor of the assay were thinned out.
B1: TPR 5TU (parent)
chain: GGAUCUUCUCGAUCUAACAAAAAAGACAAAUCUGCCACAAAGCUUGAGAGCAUCUUCGGAUGCAGAGGCGGCAGCCUUCGGUGGCGCGAUAGCGCCAACGUUCUCAACUAUGACACGCAAAACGCGUGCUCCGUUGAAUGGAGUUUAUCAUG

Variants of: B1
Test: polymerase ribozyme fitness, log enrichment relative to wild type (log ratio); higher = more active; in vitro selection for triplet polymerase activity
Procedure, shortened: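 A single round of triplicate in vitro selection, including frozen incubation at −7 °C, was applied to PCR-built, transcribed mutant libraries of each subunit of a heterodimeric triplet polymerase ribozyme. Illumina sequencing of input and output libraries retained genotypes with ≥10 input reads and ≥1 read per output. Fitness is the base-2 logarithm of genotype enrichment divided by wild-type enrichment, from inverse-variance-weighted replicate averages.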

Q: With U55A U61G G86U as the variant, how does the “polymerase ribozyme fitness (log ratio)” value read?
A: The value was at most -4.2.

Q: Which “polymerase ribozyme fitness (log ratio)” value does the source give for U55G G84A A89U C103U here?
A: Its value is -1.64.

Q: For U55A G86A C149U A150U, which “polymerase ribozyme fitness (log ratio)” value is on record?
A: The value was -1.65.

Q: With U55G G86A U134A as the variant, how does the “polymerase ribozyme fitness (log ratio)” value read?
A: Its value is -3.62.

Q: Which “polymerase ribozyme fitness (log ratio)” value does the source give for U55A U56C G58A G92C A119U U145G here?
A: The value was -2.87.

Q: For U55G C79G U145A, which “polymerase ribozyme fitness (log ratio)” value is on record?
A: The value was at most -4.2.

Q: Which “polymerase ribozyme fitness (log ratio)” value does the source give for U55C C75G C76U G80A C87G C108U here?
A: The value was at most -4.2.

Q: With U55G G62A G92U C96A as the variant, how does the “polymerase ribozyme fitness (log ratio)” value read?
A: Its value is -3.44.

Q: For U55A U139G, which “polymerase ribozyme fitness (log ratio)” value is on record?
A: The value was -0.865.

Q: With U55A U56A G80U U111A as the variant, how does the “polymerase ribozyme fitness (log ratio)” value read?
A: The value was at most -4.2.

Q: With U55A G68C A91G A107C as the variant, how does the “polymerase ribozyme fitness (log ratio)” value read?
A: Its value is at most -4.2.

Q: For U55A U102G, which “polymerase ribozyme fitness (log ratio)” value is on record?
A: Its value is -4.04.

Q: Which “polymerase ribozyme fitness (log ratio)” value does the source give for U55A G86U A91U G133U A147U here?
A: Its value is at most -4.2.

Q: Which “polymerase ribozyme fitness (log ratio)” value does the source give for U55G G59C G94C U102A U127A U135C here?
A: Its value is at most -4.2.

Q: With U55G C85U C131U U134C as the variant, how does the “polymerase ribozyme fitness (log ratio)” value read?
A: Its value is 1.73.

Q: For U55C G74C, which “polymerase ribozyme fitness (log ratio)” value is on record?
A: Its value is -3.64.

Q: Which “polymerase ribozyme fitness (log ratio)” value does the source give for U55G C114U here?
A: Its value is -2.17.

Q: For U55A G88C G133U U145C, which “polymerase ribozyme fitness (log ratio)” value is on record?
A: The value was at most -4.2.

Q: For U55G G83C U135A, which “polymerase ribozyme fitness (log ratio)” value is on record?
A: Its value is -1.97.

Q: Which “polymerase ribozyme fitness (log ratio)” value does the source give for U55A U77C C105A A107U U127G A137C here?
A: Its value is at most -4.2.

Q: For U55G C79U A91C G124C C129A A137U, which “polymerase ribozyme fitness (log ratio)” value is on record?
A: The value was at most -4.2.

Q: Which “polymerase ribozyme fitness (log ratio)” value does the source give for U55A G117A here?
A: The value was -0.438.

Q: Which “polymerase ribozyme fitness (log ratio)” value does the source give for U55A U56A G59A here?
A: The value was 0.199.

Q: Which “polymerase ribozyme fitness (log ratio)” value does the source give for U55G C69A C99U here?
A: Its value is -0.89.

Q: Which “polymerase ribozyme fitness (log ratio)” value does the source give for U55A U101G here?
A: The value was -0.568.

Q: Which “polymerase ribozyme fitness (log ratio)” value does the source give for U55A U61A A97C C103A C125A here?
A: Its value is at most -4.2.

Q: For U55G C93U U101G, which “polymerase ribozyme fitness (log ratio)” value is on record?
A: Its value is -0.936.

Q: Which “polymerase ribozyme fitness (log ratio)” value does the source give for U55G C85G C132U here?
A: Its value is -2.9.

Q: For U55A G83U, which “polymerase ribozyme fitness (log ratio)” value is on record?
A: Its value is -1.69.

Q: For U55G G86A U139G, which “polymerase ribozyme fitness (log ratio)” value is on record?
A: Its value is -1.96.

Q: With U55A G100A as the variant, how does the “polymerase ribozyme fitness (log ratio)” value read?
A: The value was at most -4.2.

Q: Which “polymerase ribozyme fitness (log ratio)” value does the source give for U55A G94C U148G here?
A: Its value is at most -4.2.

Q: Which “polymerase ribozyme fitness (log ratio)” value does the source give for U55C C85G here?
A: The value was -1.66.

Q: With U55C C85A as the variant, how does the “polymerase ribozyme fitness (log ratio)” value read?
A: The value was -1.24.

Q: With U55G C87U as the variant, how does the “polymerase ribozyme fitness (log ratio)” value read?
A: Its value is -1.42.

Q: Which “polymerase ribozyme fitness (log ratio)” value does the source give for U55G G84A C99A A120G C131U here?
A: Its value is -2.08.

Q: With U55A U82G C116A A121U A137C as the variant, how does the “polymerase ribozyme fitness (log ratio)” value read?
A: Its value is -3.5.

Q: For U55G A89G G124C U146C, which “polymerase ribozyme fitness (log ratio)” value is on record?
A: The value was -1.44.

Q: With U55C A73U A97U U144G as the variant, how does the “polymerase ribozyme fitness (log ratio)” value read?
A: Its value is -1.48.

Q: Which “polymerase ribozyme fitness (log ratio)” value does the source give for U55A U78G G94U C114G here?
A: The value was at most -4.2.

Q: Which “polymerase ribozyme fitness (log ratio)” value does the source give for U55G C87U U130C here?
A: The value was -0.00301.

Q: With U55C C85U G136C as the variant, how does the “polymerase ribozyme fitness (log ratio)” value read?
A: The value was -3.51.

Q: For U55G A60G, which “polymerase ribozyme fitness (log ratio)” value is on record?
A: The value was 0.467.

Q: For U55A G71C A106U C125A, which “polymerase ribozyme fitness (log ratio)” value is on record?
A: The value was at most -4.2.

Q: For U55A G62C G81A, which “polymerase ribozyme fitness (log ratio)” value is on record?
A: The value was -3.98.

Q: For U55G A107U A122U, which “polymerase ribozyme fitness (log ratio)” value is on record?
A: Its value is -3.21.

Q: Which “polymerase ribozyme fitness (log ratio)” value does the source give for U55A G84U G128U U134C here?
A: The value was -4.17.

Q: Which “polymerase ribozyme fitness (log ratio)” value does the source give for U55G C72U G136C here?
A: Its value is -3.74.

Q: For U55A G74C C118U, which “polymerase ribozyme fitness (log ratio)” value is on record?
A: Its value is at most -4.2.

Q: Which “polymerase ribozyme fitness (log ratio)” value does the source give for U55A U56A A106C here?
A: Its value is -1.06.

Q: Which “polymerase ribozyme fitness (log ratio)” value does the source give for U55A G80A here?
A: Its value is -1.65.

Q: Which “polymerase ribozyme fitness (log ratio)” value does the source give for U55A G136A here?
A: Its value is -0.833.

Q: Which “polymerase ribozyme fitness (log ratio)” value does the source give for U55G G81A U139C here?
A: The value was at most -4.2.

Q: With U55G C99A as the variant, how does the “polymerase ribozyme fitness (log ratio)” value read?
A: The value was -3.24.

Q: For U55G G83U, which “polymerase ribozyme fitness (log ratio)” value is on record?
A: Its value is -0.389.

Q: Which “polymerase ribozyme fitness (log ratio)” value does the source give for U55G G83C here?
A: The value was -0.921.

Q: Which “polymerase ribozyme fitness (log ratio)” value does the source give for U55G G83A here?
A: The value was -0.31.

Q: For U55G G62A C116G, which “polymerase ribozyme fitness (log ratio)” value is on record?
A: Its value is -1.02.

Q: For U55G A60G C69U A91G U144A, which “polymerase ribozyme fitness (log ratio)” value is on record?
A: Its value is -2.3.

Q: For U55G C57U C63G A66U G94C U104G, which “polymerase ribozyme fitness (log ratio)” value is on record?
A: Its value is at most -4.2.

Q: For U55G C87A G141C, which “polymerase ribozyme fitness (log ratio)” value is on record?
A: The value was -3.74.

Q: For U55A G94U C108A, which “polymerase ribozyme fitness (log ratio)” value is on record?
A: Its value is at most -4.2.

Q: With U55A U61A C79A G83A U90G G143A as the variant, how does the “polymerase ribozyme fitness (log ratio)” value read?
A: Its value is at most -4.2.

Q: For U55G G84U A106G, which “polymerase ribozyme fitness (log ratio)” value is on record?
A: The value was -1.26.

Q: With U55A U127G as the variant, how does the “polymerase ribozyme fitness (log ratio)” value read?
A: Its value is -2.72.

Q: Which “polymerase ribozyme fitness (log ratio)” value does the source give for U55A U61A C96A C116G here?
A: Its value is -2.17.

Q: With U55G A98U U144G as the variant, how does the “polymerase ribozyme fitness (log ratio)” value read?
A: The value was 0.317.

Q: Which “polymerase ribozyme fitness (log ratio)” value does the source give for U55A G140U here?
A: Its value is -2.9.

Q: Which “polymerase ribozyme fitness (log ratio)” value does the source give for U55A G140A here?
A: The value was -4.

Q: For U55A G84U A106C U144C U146C, which “polymerase ribozyme fitness (log ratio)” value is on record?
A: Its value is -4.16.

Q: For U55A G68A, which “polymerase ribozyme fitness (log ratio)” value is on record?
A: Its value is -3.21.

Q: Which “polymerase ribozyme fitness (log ratio)” value does the source give for U55G C72U here?
A: The value was -0.349.

Q: For U55A G86U U145G, which “polymerase ribozyme fitness (log ratio)” value is on record?
A: The value was -1.41.

Q: For U55A U90C C95U U146C C149A, which “polymerase ribozyme fitness (log ratio)” value is on record?
A: Its value is at most -4.2.

Q: For U55A G67A U127A, which “polymerase ribozyme fitness (log ratio)” value is on record?
A: Its value is at most -4.2.

Q: For U55G C63U G81U C87G U102G C116G A150C, which “polymerase ribozyme fitness (log ratio)” value is on record?
A: The value was at most -4.2.

Q: Which “polymerase ribozyme fitness (log ratio)” value does the source give for U55G A60U G83C A137U G141U here?
A: Its value is at most -4.2.

Q: With U55G G83A C103U U135A as the variant, how does the “polymerase ribozyme fitness (log ratio)” value read?
A: The value was -2.23.

Q: Which “polymerase ribozyme fitness (log ratio)” value does the source give for U55A G70A C123G here?
A: Its value is -3.3.

Q: For U55A G81A C93U C105A C118U, which “polymerase ribozyme fitness (log ratio)” value is on record?
A: Its value is -3.74.

Q: For U55A U78G G84U C87G C118U, which “polymerase ribozyme fitness (log ratio)” value is on record?
A: The value was at most -4.2.

Q: For U55A G84A G86A C93U C105U, which “polymerase ribozyme fitness (log ratio)” value is on record?
A: The value was -1.1.

Q: With U55G G65A A97U U130C as the variant, how does the “polymerase ribozyme fitness (log ratio)” value read?
A: The value was -1.27.

Q: With U55G G84U A98C U151C as the variant, how does the “polymerase ribozyme fitness (log ratio)” value read?
A: The value was at most -4.2.

Source: the RNAGym collection of RNA variant scans (doi:10.1073/pnas.2313332121)
